In patent US20180022780A1 (Bayer, published 2018):
Values belong to the binder of their own block, whether it stands above or below them. Bridge positions count the residues as written; N and C are the ends. Square brackets hold non-standard residues; d marks the D form. Ends that are not written are not given here. Orn = NCCC[C@H](N)C(=O)O; Dab = NCC[C@H](N)C(=O)O; Dap = NC[C@H](N)C(=O)O

How the values were obtained:
[1] = molecular target: human adrenomedullin-receptor (human, UniProt Q16602 23-461); experiment: cell-based or functional assay
[2] = molecular target: CLR fused to EYFP with RAMP2 fused to ECFP; experiment: cell-based or functional assay
Sequence of CLR fused to EYFP with RAMP2 fused to ECFP (Q16602 whole entry, chain 1 of 2, the tested form may be a part): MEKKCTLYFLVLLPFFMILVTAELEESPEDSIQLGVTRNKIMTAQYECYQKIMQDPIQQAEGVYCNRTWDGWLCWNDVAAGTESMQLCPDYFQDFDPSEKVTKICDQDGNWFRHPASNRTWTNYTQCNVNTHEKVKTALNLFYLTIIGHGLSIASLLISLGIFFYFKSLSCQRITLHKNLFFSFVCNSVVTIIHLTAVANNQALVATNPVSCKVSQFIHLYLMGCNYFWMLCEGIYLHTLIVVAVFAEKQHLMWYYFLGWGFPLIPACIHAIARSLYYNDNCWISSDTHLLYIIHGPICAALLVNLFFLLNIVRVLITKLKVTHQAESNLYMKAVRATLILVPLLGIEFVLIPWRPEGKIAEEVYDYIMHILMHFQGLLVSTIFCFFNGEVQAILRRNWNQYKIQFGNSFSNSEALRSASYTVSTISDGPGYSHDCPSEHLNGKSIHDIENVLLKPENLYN
Sequence of CLR fused to EYFP with RAMP2 fused to ECFP (O60895 whole entry, chain 2 of 2, further chain, the tested form may be a part): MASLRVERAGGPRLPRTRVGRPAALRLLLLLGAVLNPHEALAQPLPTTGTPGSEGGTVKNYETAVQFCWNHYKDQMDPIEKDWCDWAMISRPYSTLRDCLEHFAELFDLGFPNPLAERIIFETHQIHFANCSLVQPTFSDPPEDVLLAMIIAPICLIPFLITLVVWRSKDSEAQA

Sequence of human adrenomedullin-receptor (Q16602 23-461): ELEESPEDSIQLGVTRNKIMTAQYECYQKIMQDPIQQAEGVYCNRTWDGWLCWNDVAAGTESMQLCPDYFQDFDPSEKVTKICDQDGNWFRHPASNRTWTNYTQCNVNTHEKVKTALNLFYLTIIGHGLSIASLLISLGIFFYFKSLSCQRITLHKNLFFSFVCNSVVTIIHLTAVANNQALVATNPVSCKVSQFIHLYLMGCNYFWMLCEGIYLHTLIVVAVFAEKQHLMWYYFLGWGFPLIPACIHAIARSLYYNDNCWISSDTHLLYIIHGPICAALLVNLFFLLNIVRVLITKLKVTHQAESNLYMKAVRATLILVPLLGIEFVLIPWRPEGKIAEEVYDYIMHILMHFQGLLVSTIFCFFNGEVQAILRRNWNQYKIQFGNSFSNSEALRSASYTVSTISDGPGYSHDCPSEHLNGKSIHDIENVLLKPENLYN

EC50 [nM], aequorin luminescence of CHO adrenomedullin-receptor reporter cells [1]: > 1000 nM | EC50 [nM], cAMP assay (CRE-luciferase luminescence, HEK293 cells) [2]: > 1000 nM
B1: [G^14, (Orn^16, D^21)lac]ADM(14-52) (peptide)
peptide: GG[Orn]RFGTDTVQKLAHQIYQFTDKDKDNVAPRSKISPQGY-NH2
modifications: lactam 3-8; N-terminus assumed
SMILES: CC[C@H](C)[C@H](NC(=O)[C@H](CCC(N)=O)NC(=O)[C@H](Cc1c[nH]cn1)NC(=O)[C@H](C)NC(=O)[C@H](CC(C)C)NC(=O)[C@H](CCCCN)NC(=O)[C@H](CCC(N)=O)NC(=O)[C@@H](NC(=O)[C@@H](NC(=O)[C@@H]1CC(=O)NCCC[C@H](NC(=O)CNC(=O)CN)C(=O)N[C@@H](CCCNC(=N)N)C(=O)N[C@@H](Cc2ccccc2)C(=O)NCC(=O)N[C@@H]([C@@H](C)O)C(=O)N1)[C@@H](C)O)C(C)C)C(=O)N[C@@H](Cc1ccc(O)cc1)C(=O)N[C@@H](CCC(N)=O)C(=O)N[C@@H](Cc1ccccc1)C(=O)N[C@H](C(=O)N[C@@H](CC(=O)O)C(=O)N[C@@H](CCCCN)C(=O)N[C@@H](CC(=O)O)C(=O)N[C@@H](CCCCN)C(=O)N[C@@H](CC(=O)O)C(=O)N[C@@H](CC(N)=O)C(=O)N[C@H](C(=O)N[C@@H](C)C(=O)N1CCC[C@H]1C(=O)N[C@@H](CCCNC(=N)N)C(=O)N[C@@H](CO)C(=O)N[C@@H](CCCCN)C(=O)N[C@H](C(=O)N[C@@H](CO)C(=O)N1CCC[C@H]1C(=O)N[C@@H](CCC(N)=O)C(=O)NCC(=O)N[C@@H](Cc1ccc(O)cc1)C(N)=O)[C@@H](C)CC)C(C)C)[C@@H](C)O

EC50 [nM], aequorin luminescence of CHO adrenomedullin-receptor reporter cells [1]: > 1000 nM | EC50 [nM], cAMP assay (CRE-luciferase luminescence, HEK293 cells) [2]: 112 nM
B2: [G^14, (Dab^16, D^21)lac]ADM(14-52) (peptide)
peptide: GG[Dab]RFGTDTVQKLAHQIYQFTDKDKDNVAPRSKISPQGY-NH2
modifications: lactam 3-8; N-terminus assumed
SMILES: CC[C@H](C)[C@H](NC(=O)[C@H](CCC(N)=O)NC(=O)[C@H](Cc1c[nH]cn1)NC(=O)[C@H](C)NC(=O)[C@H](CC(C)C)NC(=O)[C@H](CCCCN)NC(=O)[C@H](CCC(N)=O)NC(=O)[C@@H](NC(=O)[C@@H](NC(=O)[C@@H]1CC(=O)NCC[C@H](NC(=O)CNC(=O)CN)C(=O)N[C@@H](CCCNC(=N)N)C(=O)N[C@@H](Cc2ccccc2)C(=O)NCC(=O)N[C@@H]([C@@H](C)O)C(=O)N1)[C@@H](C)O)C(C)C)C(=O)N[C@@H](Cc1ccc(O)cc1)C(=O)N[C@@H](CCC(N)=O)C(=O)N[C@@H](Cc1ccccc1)C(=O)N[C@H](C(=O)N[C@@H](CC(=O)O)C(=O)N[C@@H](CCCCN)C(=O)N[C@@H](CC(=O)O)C(=O)N[C@@H](CCCCN)C(=O)N[C@@H](CC(=O)O)C(=O)N[C@@H](CC(N)=O)C(=O)N[C@H](C(=O)N[C@@H](C)C(=O)N1CCC[C@H]1C(=O)N[C@@H](CCCNC(=N)N)C(=O)N[C@@H](CO)C(=O)N[C@@H](CCCCN)C(=O)N[C@H](C(=O)N[C@@H](CO)C(=O)N1CCC[C@H]1C(=O)N[C@@H](CCC(N)=O)C(=O)NCC(=O)N[C@@H](Cc1ccc(O)cc1)C(N)=O)[C@@H](C)CC)C(C)C)[C@@H](C)O

EC50 [nM], aequorin luminescence of CHO adrenomedullin-receptor reporter cells [1]: 17.3 nM | EC50 [nM], cAMP assay (CRE-luciferase luminescence, HEK293 cells) [2]: 20 nM
Binder: GGDRFGT[Orn]TVQKLAHQIYQFTDKDKDNVAPRSKISPQGY-NH2 (lactam 3-8) [[G^14, (D^16, Orn^21)lac]ADM(14-52)]

EC50 [nM], aequorin luminescence of CHO adrenomedullin-receptor reporter cells [1]: > 1000 nM | EC50 [nM], cAMP assay (CRE-luciferase luminescence, HEK293 cells) [2]: 303 nM
Binder: GGERFGT[Dap]TVQKLAHQIYQFTDKDKDNVAPRSKISPQGY-NH2 (lactam 3-8) [[G^14, (E^16, Dpr^21)lac]ADM(14-52)]

EC50 [nM], aequorin luminescence of CHO adrenomedullin-receptor reporter cells [1]: 5.26 nM | EC50 [nM], cAMP assay (CRE-luciferase luminescence, HEK293 cells) [2]: 2.9 nM
B3: [G^14, (Dpr^16, E^21)lac]ADM(14-52) (peptide)
peptide: GG[Dap]RFGTETVQKLAHQIYQFTDKDKDNVAPRSKISPQGY-NH2
modifications: lactam 3-8; N-terminus assumed
SMILES: CC[C@H](C)[C@H](NC(=O)[C@H](CCC(N)=O)NC(=O)[C@H](Cc1c[nH]cn1)NC(=O)[C@H](C)NC(=O)[C@H](CC(C)C)NC(=O)[C@H](CCCCN)NC(=O)[C@H](CCC(N)=O)NC(=O)[C@@H](NC(=O)[C@@H](NC(=O)[C@@H]1CCC(=O)NC[C@H](NC(=O)CNC(=O)CN)C(=O)N[C@@H](CCCNC(=N)N)C(=O)N[C@@H](Cc2ccccc2)C(=O)NCC(=O)N[C@@H]([C@@H](C)O)C(=O)N1)[C@@H](C)O)C(C)C)C(=O)N[C@@H](Cc1ccc(O)cc1)C(=O)N[C@@H](CCC(N)=O)C(=O)N[C@@H](Cc1ccccc1)C(=O)N[C@H](C(=O)N[C@@H](CC(=O)O)C(=O)N[C@@H](CCCCN)C(=O)N[C@@H](CC(=O)O)C(=O)N[C@@H](CCCCN)C(=O)N[C@@H](CC(=O)O)C(=O)N[C@@H](CC(N)=O)C(=O)N[C@H](C(=O)N[C@@H](C)C(=O)N1CCC[C@H]1C(=O)N[C@@H](CCCNC(=N)N)C(=O)N[C@@H](CO)C(=O)N[C@@H](CCCCN)C(=O)N[C@H](C(=O)N[C@@H](CO)C(=O)N1CCC[C@H]1C(=O)N[C@@H](CCC(N)=O)C(=O)NCC(=O)N[C@@H](Cc1ccc(O)cc1)C(N)=O)[C@@H](C)CC)C(C)C)[C@@H](C)O
